± gives the half width of the 95% confidence interval.
Key:
[1] = folding stability dG unfold from trypsin proteolysis; higher = more stable
Method in brief: (§1)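 Bayesian fitting of sequencing counts gave K50 for each design. Unfolding free energy followed by setting this against a sequence-predicted unfolded-state K50 and a shared folded-state K50, either per protease or with trypsin and chymotrypsin combined. The designs, under 80 residues and lacking cysteine, were digested in a PA-tagged cDNA display format at 11 threefold-diluted protease concentrations and without protease, and only those with AlphaFold2 dimer inter-PAE above 15 were kept.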

[2] = folding stability dG unfold (combined trypsin and chymotrypsin); higher = more stable
Method in brief: as §1

[3] = folding stability dG unfold from chymotrypsin proteolysis; higher = more stable
Method in brief: as §1

Row | Sequence | folding stability dG unfold [1] [kcal/mol] | folding stability dG unfold [2] [kcal/mol] | folding stability dG unfold [3] [kcal/mol]
1 | SAGGSAGGSAGGSGPSVVLVSLPDGSYIAFPSGADVNIEIPSSSSGARIVAVIPLSELSSAGGSAGGSAGGS [r4_122_TrMRF] | 0.111 ± 0.059 | 0.518 ± 0.11 | 0.714 ± 0.024
2 | SAGGSAGGSMTPVPGGYVITIETPAPGGVPLATLYVPSREEAEAAIAEIPAEDLTAVTVEPVLLSAGGSAGG [r6_705_JUSTAS] | 0.714 ± 0.034 | 0.719 ± 0.081 | 0.566 ± 0.13
3 | SAGGSAGGELEELPGLKVVAVFELPGNRRLVLFEAEGGRYLLLVEGEGTRLVPVPEDVSLEELASAGGSAGG [r6_680_TrMRF] | 2.73 ± 0.043 | 3.179 ± 0.03 | 3.394 ± 0.031
4 | SAGGITINEDGTITIEVNGKTYTIKLPPGAEITKIEVLEDGTIKITLRINGKTVTLELKVYKEGEEPSAGGS [r16_635_TrROS_Hall] | 4.56 ± 0.42 | > 6 | 6.55 ± 0.68
5 | SAGTIKELLEKLPGFSVEVDPDDGTVWVMFRMPDHYVMIEIPIDKEDGNIKGIRIHRHDPNGEPKPIPLSAG [r5_367_TrROS] | 1.44 ± 0.038 | 1.44 ± 0.12 | 1.19 ± 0.22
6 | SAGMTVTVTLNYPTPGGPVTVRVLRGDEEEVVTVPPTETLTITVTLDPDSGATIEVFFPDGSSKTYPLGSAG [r5_187_JUSTAS] | 2.81 ± 0.1 | 3.35 ± 0.18 | 3.76 ± 0.14
7 | SAGGSAGGEKVEKKEVKVELKIVIVVSEELREMSEEELEELLKELAAKLPGVKEVKIEILPLPESAGGSAGG [r6_710_TrROS_Hall] | 1.04 ± 0.13 | 1.16 ± 0.13 | 1.34 ± 0.13
8 | SAGMVIPYKELKKNLSEEELIELAKEAAEKLGYKPKKIEIKETPEPDKYIVIDVIDENGNKHPIVFPSKSAG [r5_745_TrMRF] | 0.69 ± 0.036 | 0.542 ± 0.088 | 0.374 ± 0.17
9 | SAGGSAGGMKLTLRIEAPREEVERLAKEFEAQGIKVTVKPRPDGRVELTLEIDLPDTDKSLFDPSAGGSAGG [r6_8_TrMRF] | 2.49 ± 0.17 | 2.55 ± 0.12 | 2.67 ± 0.057
10 | SAGGPKPILILPKNGKTETIPVPESMTLEEIIEIVKKAAEKYGFEKISYDPEKKVVTVYLKGKVIVTGSAGG [r13_572_TrMRF] | 1.25 ± 0.015 | 2.27 ± 0.064 | 2.625 ± 0.017
11 | SAGGSAGGSAMSEEERRRRAEEERRKKPPVFKITEITVERDEDGNLRVTFRLEDGSTVTIELSAGGSAGGSA [r18_423_TrROS_Hall] | 1.89 ± 0.039 | 2.91 ± 0.14 | 3.33 ± 0.088
12 | SAGGSAGGSAGGIRIEFPGMKFEIDEFDPPNGVITLRFPENGQELQIKFDSDGEITKITWSAGGSAGGSAGG [r7_553_TrROS] | 2.05 ± 0.2 | 2.25 ± 0.28 | 1.94 ± 0.14
13 | SAMPIQIMVERDPDDGYIKVTIMFRSDSPEEAYELIETLFENLGVEVNIERYPEEGYFMIEVEIRLPPGSAG [r14_424_TrROS] | 3.45 ± 0.23 | 3.89 ± 0.21 | 4.13 ± 0.33
14 | SAGGMTLTLTGPEEVVDDLLERLREEFPDVTVEPTAVSYDPATGLVTVPVRVVTEDPAVVAAIRAALSSAGG [r13_539_JUSTAS] | 4.08 ± 0.091 | 3.79 ± 0.065 | 3.562 ± 0.03
15 | SAGGSAGGSPDAPPPPVNVVVPIPESELLSEEELPGGTTLRTYRLPDGTEITVRTAPDGRVTVDSAGGSAGG [r6_119_JUSTAS] | 3.01 ± 0.16 | 3.57 ± 0.13 | 3.86 ± 0.059
16 | SAGGSAGGMEEIEIEINGKKAKIYRLPGDEDLFLIEVDGELYLVKVKKKDGKWEIVEVKKLDELSAGGSAGG [r6_915_TrROS_Hall] | 4.17 ± 0.29 | 4.13 ± 0.16 | 4.25 ± 0.091
17 | SAGGVEREPTEEDLLVATAEFLIEVRDPDSDYPLVEPVPITLPFTSLEDLLEELRRLKAEVEEALASSAGGS [r16_624_TrMRF] | 1.88 ± 0.092 | 1.7 ± 0.14 | 1.63 ± 0.073
18 | SAGGSAGGSAGEGLKVTVTVSGELDPEKGGLSLRVEIRVEPVLIPPPVLPPAADNLSNLLSAGGSAGGSAGG [r17_454_TrMRF] | 1.94 ± 0.072 | 1.55 ± 0.09 | 0.912 ± 0.079
19 | SAGGKKKKTIVIVLEVSEEEAEKIIEALKKELEKKGFKIEKIEVRKVPDKPMVIVTIKLENGEELTFISAGG [r13_421_TrROS_Hall] | 1.97 ± 0.052 | 2.44 ± 0.073 | 2.64 ± 0.055
20 | SAGGEKVKRVLVRDKKTKEWREVEVKEAKVEPPPVITIKIELSEEEAKKLAELLRKLFPDAKVTVVKSAGGS [r8_437_TrROS_Hall] | 4.15 ± 0.35 | 3.98 ± 0.31 | 3.82 ± 0.24
21 | SAGGSAGGSAGGMKTITIKVPSSVSFEEAKKKAEALFPKSIPVKVEYDPKTGTFTVTVESAGGSAGGSAGGS [r10_163_JUSTAS] | 1.77 ± 0.035 | 2.17 ± 0.046 | 2.349 ± 0.015

Row | Sequence | folding stability dG unfold [1] [kcal/mol] | folding stability dG unfold [2] [kcal/mol] | folding stability dG unfold [3] [kcal/mol]
22 | SAGGSAGGRVRIHYNPEDGYIMITFPRNNPEEIAKEILEAFNIKDVNIQVDPEEGWVSIMIKIDSAGGSAGG [r6_662_TrROS] | 2.95 ± 0.25 | 2.17 ± 0.41 | 1.26 ± 0.1
23 | SAGGSAGGSSPSTSSERRIELPGGEEAEVFFYPSSGKILVRFPDREVEYYVEDDGKIVKKDPLSAGGSAGGS [r12_47_JUSTAS] | 0.478 ± 0.063 | 0.315 ± 0.13 | 0.0525 ± 0.21
24 | ERDLIVIAGDDLTPEQLRELLEELGFRPEDAEIFREGDALLIVLPDAVILVVRPPPLPVLSEDDPELLEEAS [r1_57_TrMRF] | 3.22 ± 0.16 | 3.19 ± 0.2 | 3.28 ± 0.23
25 | SAGGSAGGSAGGSSMAIKKVSEFLLRPENGELIKVTVYRKPGPETIVTVIGDKTYTFEPSAGGSAGGSAGGS [r4_114_JUSTAS] | -0.855 ± 0.25 | 0.0399 ± 0.1 | 0.336 ± 0.11
26 | SAGGSAGGSAGMTKIVIQYEVPPDKPPPDLEEIKKSLPGAENIEITREELPNGTWVYTVESAGGSAGGSAGG [r17_205_JUSTAS] | 0.694 ± 0.19 | 0.593 ± 0.26 | 0.405 ± 0.3
27 | SAGGSAGGSAGGNNLYSTSTTVLSTVPVRPDETVTRPGTGAPVSPSETVALSTTSTAPSLSAGGSAGGSAGG [r11_793_JUSTAS] | 0.629 ± 0.026 | 0.246 ± 0.054 | -0.729 ± 0.081
28 | SAGGSAGGSAMSVVVKYTVLLTDPVTGKTTVVPVTATLPVSDGTAKTIEEIVAEHPNYEILESAGGSAGGSA [r18_267_JUSTAS] | 1.81 ± 0.068 | 1.56 ± 0.039 | 1.3 ± 0.026
29 | SAGGSAMIITFDKKTGKLTIYNKETGKKIEAEITKIEKIPEDKKYVKIKIKNKKTKKEFEFIFKIKSAGGSA [r15_209_TrROS_Hall] | 2.57 ± 0.16 | 3.81 ± 0.38 | 4.39 ± 0.1
30 | SAGGSAMKKLTIELPDPDITPEEAEKRAREIAEKIAEGNYKVEEIKVEPVDPEKNVYRGTVIIKELSAGGSA [r15_96_JUSTAS] | 0.64 ± 0.13 | 0.507 ± 0.34 | 0.365 ± 0.27
31 | SAAAAVAAAVAATLEALLPPGYRITAVTAEVAPDGTVTIPVTVEGPDGVPTLVVVTVDLATGEITVTVFGSA [r9_219_TrMRF] | 3.17 ± 0.16 | 4.22 ± 0.22 | 4.63 ± 0.21
32 | SAGGSAGGSNGDKKPPVKWEWVMIEIEIPPDDIDEIAEEFPGFSVNYERDNGHYRVNIMIPVPYSAGGSAGG [r6_686_TrROS] | 1.35 ± 0.021 | 1.73 ± 0.089 | 1.94 ± 0.093
33 | SAGSGVILRTPEGKYVPLSALSEEEIKTAIEDPLSPAPPVTVEVTVTSVRLPVPRTVTTTEVVVTVLGSAGG [r19_232_JUSTAS] | -0.00526 ± 0.21 | 0.115 ± 0.19 | 0.233 ± 0.19
34 | SMKPGETVRVTFKTKDGSKIEIEFKNGKPVRITVYNKNGEKVKEIEVTLDELKELAEKLGIEEIVEVEKVSA [r9_1107_TrROS_Hall] | 2.76 ± 0.19 | 3.26 ± 0.35 | 3.44 ± 0.077
35 | SAGGSAGGSAFIRAEYKLPENKVLEIEIPVPESVLKKMSIEEVKELFKKLGLPDDVKIEFYDESAGGSAGGS [r12_742_TrMRF] | 1.43 ± 0.041 | 1.66 ± 0.098 | 1.78 ± 0.15
36 | SAGGSAGGSEIPDIEITIDSIEFFPDGTVRITATVRFPGGGTAKITLTLPAPPAEYEPPSDLLSAGGSAGGS [r12_558_TrMRF] | 1.49 ± 0.2 | 1.39 ± 0.5 | 1.12 ± 0.25
37 | SAGMTITLDGVEITVERVRDEETGEWYYRVTVTVTTEDGEKVTITVTVPEGMTPEQVEALARELAEALASAG [r5_704_TrROS_Hall] | 5.12 ± 0.42 | 4.54 ± 0.19 | 4.37 ± 0.096
38 | MEELEKLPGIKVEPIREEDGRLYLRVTFTDEVAKALGKPPVTVLIEVEPGEELELSPELRELLRKLGIEVVS [r1_256_TrROS_Hall] | 2.6 ± 0.061 | 3.86 ± 0.12 | 4.34 ± 0.11
39 | SAGGSAGGSMKLEVEAELEVPLPNGKPKRFKVKFRVEPGESGVKVEVLEVDDPLVVEAIKKLFSAGGSAGGS [r12_743_TrMRF] | 2.2 ± 0.034 | 2.65 ± 0.096 | 3 ± 0.072
40 | SAGGSAGGSAGMEPIRVTVTTQDTATGTTTTTTVTVPTDVPVEAVLAALDPALVTAVTVESAGGSAGGSAGG [r11_386_JUSTAS] | 1.68 ± 0.061 | 0.808 ± 0.11 | -0.172 ± 0.072
41 | SAGGSAGGRIPLEDIEIVEVSEETLPNTEKVYHVLVKLPEGYIEATFLPNTGLEEAVERLLALESAGGSAGG [r6_232_TrMRF] | 0.963 ± 0.053 | 0.788 ± 0.067 | 0.493 ± 0.097
42 | SAGGGMSTLVRLPPGGVEEREVPPGTEADLNAEFSPESKLVVRTFDPATGRWTETVYEPGGVPTVLSSSAGG [r13_74_JUSTAS] | 2.91 ± 0.082 | 3.41 ± 0.32 | 3.65 ± 0.21
